Reference: the nanobody polyreactivity screen of Harvey et al. (2022)

Assay: yeast display, Sf9 membrane polyspecificity reagent, FACS + sequencing; frameworks hold sequencing errors
How it was run: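 Sorting gates, low and high (top ~1%), were placed on anti-HA fluorescence to track expression and on streptavidin fluorescence to track reagent binding. A clone's polyreactivity label is taken from the gate it came out of. The reagent was 10% biotinylated, detergent-solubilized Sf9 membrane, applied for 1 hour at 4 °C to galactose-induced yeast display cells.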

| Sequence | polyreactivity (PSR sort gate) |
| --- | --- |
| QVQLVESGGGLVQAGGSLRLSCAASGFTFGYYAMGWYRQAPGKERELVARISDGGSTNYADSVKGRFTISRDNAKNTVYLQMNSLKQEDTAVYYCAADDTRGREEYDYWGQGTQVTVSS | high polyreactivity |
| QVQLVESGGGIDQAGGSLRLSCAASGFIFTNYAMGWYRQAPGKERELVAAITRRGGGTYYADSVKGRFTISRDNAKKTVYVQMNSLKPEDTAVYYCAKYSRLVTANDYDYWGQGTQVTVSS | high polyreactivity |
| QVQLVESGGGLVQAGGSLRLSCAASGIIFLDNAMGWYRQAPGKERELVADITSSGGSTYYADSVKGRFTISRDNAKNTVSLQMNSLKPEDTAVYYCAATRPSYNDAESDYWGQGTQVTVSS | low polyreactivity |
| QVQLVESAGGLVQAGGSLRLSCAASGSIFPGYAMGWYRQAPVKERELVATITWSGGSTYYADSVKGRFTISRDNAKNSVYLQMNILKPEDTAVYYCNADSNWYYQWNYYGLYDYWGQGTQVTVSS | low polyreactivity |
| QVQLVESGGGLVQAGGSLRLSCAASGRTIRNNAMGWYRQAPGKERDLVASITRSGGSTYYADSVKGRFTISRDNANNSVSLQLNSLKPEDTSVFYCNRVAHSLTYPTDHEFNYWGQGTQVTVSS | high polyreactivity |
| QVQLVESGGGLVQAGGSLRLSCAASGRTIYRYAMGWYRQAPGKERELVAAITRRGVNTYYADSVKGRFTISRDNAKNTVYLQMNSLKPEDTAVYYCAAENGALVTYGYWGQGTQVTVSS | high polyreactivity |
| QVQHVESGGGLDQAGGSLPLSCASSGSTFAYYAMGWYRQAPGKERELVASITWSGGITYYADSVKGRFTISRDNAKNTVYLQMNSLKPEETAVYYCNVVPYYGYYYWGQGSQVTVSS | low polyreactivity |
| QVQLVESGGVLVQAGGSLRLSCAATGSIFQYYAMGWSRQAPGKERELVATNRRSGGSTYYADSVKGRFTISRDTAKHTVFLQMNSLKPEDTAVYYCARRLYTWETGGWRYDSWGQGTQVTVSS | high polyreactivity |
| KVHLVESGGGLVQAGGSLRLSSAAYGRTFYNNAMGWYIQAPGKERELVAAISGRGGSTYYADSLKGRFTISRDNAKNTVYVQMNILKPEDTAVYYCAATVKYSPIYDYWGQGTQVSVSS | high polyreactivity |
| QVQLVESGGGLVQAGGSLRLSCAASGFIFKGYAMGWYRQAPGKERELVAAISQRGSSTYYADSVKGRFTISRDNAKNTVYLQMNSLKPEDTAVYYCNALRHSKLDYYSWGQGTQVTVSS | high polyreactivity |
| QVQLVESGGGLVQAGGSLRLSCAASGFIFLQYADMGWYRQAPGKERELVAAISYIGGSTYYADSVKGRFTISRDNAKNTVYLQMNSLKPEDTAVYYCAAEYSTAFGEYYYWGQGTQVTVSS | high polyreactivity |
| QVQLVESGGGLVQAGGSLRLSCAASGRIFPWYAMGWYRQAPGKERELVAAISWSGGRTYYADSVKGRFTISRDNAKNTVYLQMNSLKPEDTAVYYCAAERVTYTISYSYSYDYWGQGTQVTVSS | high polyreactivity |
| QVQLVESGGGLVQAGGSLRLSCAASGRTFPAYAMGWYRQAPGKERELVAAISYSGGRTRYADSVKGRFTISRDNAKNTVYLQMNSLKPEDTAVYYCNRVIPTHSLRDYYWGQGSQVTVSS | high polyreactivity |
| QVQLVESGGGLVQAGGSLRLTCAASGGTFVYNAMGWYRKAPGKERELVAAISRGGTRTYYADSVKGRFTISRDNAKNTVYLQMNSLKPEDTAVYYCNAEVNTNYRIADYDYWGQGTQVTVSS | high polyreactivity |
| QVQLVESWGGLVQAGGSLRLSCAASGSIFRPYAMGWYRQAPGKERELVAAISSSGGSTYYADSVKGRFTISRDNAKNTVYLQMNSLKPEDTAVYYCAAESRSTWIHSRDYWGQGTQVTVSS | low polyreactivity |
| QVQIVESGGGLVQAGGSIRLSCAASGYTFVIYAMGSYRPAPGKERELVAAITTIGGRTYYADSVKGRFTISRDNAKNTVYLQMNSLKPEDTAVYYCAADIRSNRLYDGGYWGQGTQVTVSS | low polyreactivity |
| QVQLVESGGGLVQAGGSLRLSCAASGIIFGYYAMGWYRQAPGKERELVAAISRGGNTNYADSVKGRFTISRDNAKNTVYLQMNSLKPEDTAVYYCAADFWSRIKYFYAVDVDYWGQGTQVTVSS | low polyreactivity |
| QVQLVESGGGLVQAGGSLRLSCAASGSTFDPYAMGWYRQAPGKEREFVADIDSSVGSTFYADSVKGRFTISRDNAKNTVYLQMNSLKPEDTAVYYCAAVYESYYYEYYYWGQGTQVTVSS | high polyreactivity |
| QVQLVESGGGLVQAGGSLRLSCAASGFIFWFNAMGWYRQAPGKERELVATISWSDTSTYYADSVKGRFTISRDNAKNTVYLQMNSLKPEDTAVYYCATDGRETWLPEYYWGQGTQVTVSS | low polyreactivity |
| QVQLVESGGGLVQAGGSLRLSCAASGSTFWRNAMGWYRQAPGKERELVAAISRGGSTNYADSVKGRFTISRDNAKNTVYLQMNSLKPEDTAVYYCAARYYYRYNYWGQGTQVTVSS | high polyreactivity |
| QVQLVESGGGIVQAGGSLRLSCAASGRIFDWYVMGWYRQAPGKERELVAAINSGVSTKYADSVKGRFTISRDNAKNTVYLQMNSLKPEDTAVYYCAAQSFSDYRRTGRKSSYYYWGQGTLVTVSS | low polyreactivity |
